Data taken from patent publication US20120238493A1 (INDIANA UNIVERSITY RESEARCH AND TECHNOLOGY, published 2012).
Where two headings read alike, the source gives them in different places. *1 amine or outer side, *2 acyl side, *3 side chain or, on linkers, in order; H or OH if unused. Bridges are numbered along the chain shown (N, C = ends). Where no end group is shown, it is not given here. Side-chain parts run from the residue outwards. [ ]: non-standard residue; d: D form. The star is where a group is joined. γGlu = O=C(O)[C@H](CCC(=O)[*:2])N[*:1]; Palmitoyl = CCCCCCCCCCCCCCCC(=O)*; Aib = CC(C)(N)C(=O)O

How the values were obtained:
Assay in all cases: cell-based or functional assay
[1] = biological target: T1, GLP-1 receptor (UniProt P43220 24-463, limits assumed)
[2] = biological target: T2, GIP receptor (UniProt P48546 22-466, limits assumed)
T2 sequence (looked up): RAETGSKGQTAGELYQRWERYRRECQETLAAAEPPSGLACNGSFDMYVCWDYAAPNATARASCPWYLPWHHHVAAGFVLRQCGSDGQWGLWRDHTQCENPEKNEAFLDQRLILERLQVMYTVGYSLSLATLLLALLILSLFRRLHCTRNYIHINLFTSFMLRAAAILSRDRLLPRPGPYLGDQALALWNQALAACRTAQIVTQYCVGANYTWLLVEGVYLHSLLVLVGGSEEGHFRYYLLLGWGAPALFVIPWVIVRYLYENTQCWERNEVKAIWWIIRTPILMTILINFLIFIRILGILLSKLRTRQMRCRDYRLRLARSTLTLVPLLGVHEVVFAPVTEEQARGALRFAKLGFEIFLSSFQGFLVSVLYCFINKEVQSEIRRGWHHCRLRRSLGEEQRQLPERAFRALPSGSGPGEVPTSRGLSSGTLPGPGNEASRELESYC

[3] = biological target: T3, glucagon receptor (UniProt P47871 26-477, limits assumed)
[4] = biological target: T3, glucagon receptor; remark: listed apart in the source
[5] = biological target: T1, GLP-1 receptor; remark: listed apart in the source
[6] = biological target: T2, GIP receptor; remark: listed apart in the source
[7] = biological target: T3, glucagon receptor; remark: listed apart in the source
[8] = biological target: T1, GLP-1 receptor; remark: listed apart in the source
[9] = biological target: T2, GIP receptor; remark: listed apart in the source
[10] = biological target: T3, glucagon receptor; remark: listed apart in the source
[11] = biological target: T1, GLP-1 receptor; remark: listed apart in the source

T3 sequence (P47871 26-477 limits assumed): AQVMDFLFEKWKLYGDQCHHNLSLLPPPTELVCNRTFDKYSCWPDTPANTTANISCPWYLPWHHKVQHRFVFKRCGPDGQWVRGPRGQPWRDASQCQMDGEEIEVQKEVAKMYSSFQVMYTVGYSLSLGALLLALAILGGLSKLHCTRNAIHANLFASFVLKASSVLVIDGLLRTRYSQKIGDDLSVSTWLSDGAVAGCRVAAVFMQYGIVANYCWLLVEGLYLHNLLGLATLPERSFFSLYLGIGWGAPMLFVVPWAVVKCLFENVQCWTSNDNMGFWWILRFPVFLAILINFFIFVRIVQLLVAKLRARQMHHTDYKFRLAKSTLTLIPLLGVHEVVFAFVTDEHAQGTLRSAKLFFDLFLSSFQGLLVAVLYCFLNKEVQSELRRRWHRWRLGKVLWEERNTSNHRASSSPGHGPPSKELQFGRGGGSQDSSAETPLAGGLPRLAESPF

Binder: Y[Aib]QGTFTSDYSIYLDKKAA[Aib]EFVNWLLAGGPSSGAPPPSK-NH2 [mt-402 (SEQ ID NO: 11)]
- EC50 (cAMP reporter) [1]: 7 pM
- EC50 (cAMP reporter) [2]: 18.5 pM

B1: mt-404 (SEQ ID NO: 13) (peptide)
peptide: HSQGTFISDYSKALDEIHQKEFIAWLMNT-NH2
modifications: lactam 16-20; not fully specified (residue 2); also: AIB at position 2 and position 20 (given S and K), any further modification only
- EC50 (cAMP reporter) [3]: 108 pM
- relative activity (to native hormone) [3]: 70.8%
- EC50 (cAMP reporter) [1]: 6 pM
- relative activity (to native hormone) [1]: 258%
- EC50 (cAMP reporter) [2]: 32.7 pM
- relative activity (to native hormone) [2]: 50.6%

B2: mt-398 (SEQ ID NO: 18) (peptide)
peptide: YSQGTFTSDYSKYLDEQAAKEFIAWLMNGGPSSGAPPPS-NH2
modifications: lactam 16-20; N-terminus assumed
SMILES: CC[C@H](C)[C@H](NC(=O)[C@H](Cc1ccccc1)NC(=O)[C@H](CCC(=O)O)NC(=O)[C@@H]1CCCCNC(=O)CC[C@H](NC(=O)[C@H](CC(=O)O)NC(=O)[C@H](CC(C)C)NC(=O)[C@H](Cc2ccc(O)cc2)NC(=O)[C@H](CCCCN)NC(=O)[C@H](CO)NC(=O)[C@H](Cc2ccc(O)cc2)NC(=O)[C@H](CC(=O)O)NC(=O)[C@H](CO)NC(=O)[C@@H](NC(=O)[C@H](Cc2ccccc2)NC(=O)[C@@H](NC(=O)CNC(=O)[C@H](CCC(N)=O)NC(=O)[C@H](CO)NC(=O)[C@@H](N)Cc2ccc(O)cc2)[C@@H](C)O)[C@@H](C)O)C(=O)N[C@@H](CCC(N)=O)C(=O)N[C@@H](C)C(=O)N[C@@H](C)C(=O)N1)C(=O)N[C@@H](C)C(=O)N[C@@H](Cc1c[nH]c2ccccc12)C(=O)N[C@@H](CC(C)C)C(=O)N[C@@H](CCSC)C(=O)N[C@@H](CC(N)=O)C(=O)NCC(=O)NCC(=O)N1CCC[C@H]1C(=O)N[C@@H](CO)C(=O)N[C@@H](CO)C(=O)NCC(=O)N[C@@H](C)C(=O)N1CCC[C@H]1C(=O)N1CCC[C@H]1C(=O)N1CCC[C@H]1C(=O)N[C@@H](CO)C(N)=O
- EC50 (cAMP reporter) [4]: 3740 pM
- relative activity (to native hormone) [4]: 0.8%
- EC50 (cAMP reporter) [5]: 7.8 pM
- relative activity (to native hormone) [5]: 315%
- EC50 (cAMP reporter) [6]: 3.1 pM
- relative activity (to native hormone) [6]: 434%

B3: peptide of SEQ ID NO: 91 (peptide)
peptide: Y[Aib]QGTFTSDK([γGlu-γGlu-Palmitoyl])SIYLDKQAA[Aib]EFVNWLLDGGPSSGAPPPS-NH2
modifications: N-terminus assumed
SMILES: CCCCCCCCCCCCCCCC(=O)N[C@@H](CCC(=O)N[C@@H](CCC(=O)NCCCC[C@H](NC(=O)[C@H](CC(=O)O)NC(=O)[C@H](CO)NC(=O)[C@@H](NC(=O)[C@H](Cc1ccccc1)NC(=O)[C@@H](NC(=O)CNC(=O)[C@H](CCC(N)=O)NC(=O)C(C)(C)NC(=O)[C@@H](N)Cc1ccc(O)cc1)[C@@H](C)O)[C@@H](C)O)C(=O)N[C@@H](CO)C(=O)N[C@H](C(=O)N[C@@H](Cc1ccc(O)cc1)C(=O)N[C@@H](CC(C)C)C(=O)N[C@@H](CC(=O)O)C(=O)N[C@@H](CCCCN)C(=O)N[C@@H](CCC(N)=O)C(=O)N[C@@H](C)C(=O)N[C@@H](C)C(=O)NC(C)(C)C(=O)N[C@@H](CCC(=O)O)C(=O)N[C@@H](Cc1ccccc1)C(=O)N[C@H](C(=O)N[C@@H](CC(N)=O)C(=O)N[C@@H](Cc1c[nH]c2ccccc12)C(=O)N[C@@H](CC(C)C)C(=O)N[C@@H](CC(C)C)C(=O)N[C@@H](CC(=O)O)C(=O)NCC(=O)NCC(=O)N1CCC[C@H]1C(=O)N[C@@H](CO)C(=O)N[C@@H](CO)C(=O)NCC(=O)N[C@@H](C)C(=O)N1CCC[C@H]1C(=O)N1CCC[C@H]1C(=O)N1CCC[C@H]1C(=O)N[C@@H](CO)C(N)=O)C(C)C)[C@@H](C)CC)C(=O)O)C(=O)O
- EC50 (cAMP reporter) [7]: 73 pM
- EC50 (cAMP reporter) [8]: 8 pM
- EC50 (cAMP reporter) [9]: 5 pM

B4: peptide of SEQ ID NO: 90 (peptide)
peptide: H[Aib]QGTFTSDK([γGlu-γGlu-Palmitoyl])SKYLDERAAQDFVQWLLDGGPSSGAPPPS-NH2
modifications: N-terminus assumed
SMILES: CCCCCCCCCCCCCCCC(=O)N[C@@H](CCC(=O)N[C@@H](CCC(=O)NCCCC[C@H](NC(=O)[C@H](CC(=O)O)NC(=O)[C@H](CO)NC(=O)[C@@H](NC(=O)[C@H](Cc1ccccc1)NC(=O)[C@@H](NC(=O)CNC(=O)[C@H](CCC(N)=O)NC(=O)C(C)(C)NC(=O)[C@@H](N)Cc1c[nH]cn1)[C@@H](C)O)[C@@H](C)O)C(=O)N[C@@H](CO)C(=O)N[C@@H](CCCCN)C(=O)N[C@@H](Cc1ccc(O)cc1)C(=O)N[C@@H](CC(C)C)C(=O)N[C@@H](CC(=O)O)C(=O)N[C@@H](CCC(=O)O)C(=O)N[C@@H](CCCNC(=N)N)C(=O)N[C@@H](C)C(=O)N[C@@H](C)C(=O)N[C@@H](CCC(N)=O)C(=O)N[C@@H](CC(=O)O)C(=O)N[C@@H](Cc1ccccc1)C(=O)N[C@H](C(=O)N[C@@H](CCC(N)=O)C(=O)N[C@@H](Cc1c[nH]c2ccccc12)C(=O)N[C@@H](CC(C)C)C(=O)N[C@@H](CC(C)C)C(=O)N[C@@H](CC(=O)O)C(=O)NCC(=O)NCC(=O)N1CCC[C@H]1C(=O)N[C@@H](CO)C(=O)N[C@@H](CO)C(=O)NCC(=O)N[C@@H](C)C(=O)N1CCC[C@H]1C(=O)N1CCC[C@H]1C(=O)N1CCC[C@H]1C(=O)N[C@@H](CO)C(N)=O)C(C)C)C(=O)O)C(=O)O
- EC50 (cAMP reporter) [7]: 5.6 pM
- EC50 (cAMP reporter) [8]: 2.7 pM
- EC50 (cAMP reporter) [9]: 17 pM

B5: mt-403 (SEQ ID NO: 12) (peptide)
peptide: HSQGTFISDYSKYLDEIHQKEFIAWLMNT-NH2
modifications: lactam 16-20; not fully specified (residue 2); also: AIB at position 2 and position 20 (given S and K), any further modification only
- EC50 (cAMP reporter) [3]: 7.7 pM
- relative activity (to native hormone) [3]: 987%
- EC50 (cAMP reporter) [1]: 2.7 pM
- relative activity (to native hormone) [1]: 582%
- EC50 (cAMP reporter) [2]: 6.1 pM
- relative activity (to native hormone) [2]: 273%

Binder: H[Aib]QGTFTSDYSKYLDERAAQDFVQWLLDGGPSSGAPPPSY(Palmitoyl)G-NH2 (also: Y40 O-2palmitic acid, exact structure not given here) [peptide of SEQ ID NO: 212]
- EC50 (cAMP reporter) [10]: 7 pM
- EC50 (cAMP reporter) [11]: 4 pM

Binder: Y[Aib]EGTFTSDYSIYLDKQAA[Aib]EFVNWLLAGGPSSGAPPPSK-NH2 [mt-263 (SEQ ID NO: 10)]
- EC50 (cAMP reporter) [3]: 4040 pM
- EC50 (cAMP reporter) [2]: 5.4 pM
- EC50 (cAMP reporter) [4]: 3140 pM
- EC50 (cAMP reporter) [6]: 3.3 pM

Binder: Y[Aib]QGTFTSDYSKYLDEIHQKDFVNWLLAQ-NH2 (not fully specified (residue 20)) [mt-405 (SEQ ID NO: 14)]
- EC50 (cAMP reporter) [3]: 9.6 pM
- relative activity (to native hormone) [3]: 797%
- EC50 (cAMP reporter) [1]: 2.2 pM
- relative activity (to native hormone) [1]: 717%
- EC50 (cAMP reporter) [2]: 3.9 pM
- relative activity (to native hormone) [2]: 425%

B6: mt-397 (SEQ ID NO: 17) (peptide)
peptide: YSQGTFTSDYSKYLDEIHQKEFVNWLLAQ-NH2
modifications: staple (positions not given here); not fully specified; also: olefinic cross-link, positions not given here
- EC50 (cAMP reporter) [4]: 5350 pM
- relative activity (to native hormone) [4]: 0.56%
- EC50 (cAMP reporter) [5]: 8.5 pM
- relative activity (to native hormone) [5]: 288%
- EC50 (cAMP reporter) [6]: 2.9 pM
- relative activity (to native hormone) [6]: 470%

B7: peptide of SEQ ID NO: 92 (peptide)
peptide: Y[Aib]QGTFTSDK([γGlu-γGlu-Palmitoyl])SIYLDKQAA[Aib]EFVNWLLDT-NH2
modifications: N-terminus assumed
SMILES: CCCCCCCCCCCCCCCC(=O)N[C@@H](CCC(=O)N[C@@H](CCC(=O)NCCCC[C@H](NC(=O)[C@H](CC(=O)O)NC(=O)[C@H](CO)NC(=O)[C@@H](NC(=O)[C@H](Cc1ccccc1)NC(=O)[C@@H](NC(=O)CNC(=O)[C@H](CCC(N)=O)NC(=O)C(C)(C)NC(=O)[C@@H](N)Cc1ccc(O)cc1)[C@@H](C)O)[C@@H](C)O)C(=O)N[C@@H](CO)C(=O)N[C@H](C(=O)N[C@@H](Cc1ccc(O)cc1)C(=O)N[C@@H](CC(C)C)C(=O)N[C@@H](CC(=O)O)C(=O)N[C@@H](CCCCN)C(=O)N[C@@H](CCC(N)=O)C(=O)N[C@@H](C)C(=O)N[C@@H](C)C(=O)NC(C)(C)C(=O)N[C@@H](CCC(=O)O)C(=O)N[C@@H](Cc1ccccc1)C(=O)N[C@H](C(=O)N[C@@H](CC(N)=O)C(=O)N[C@@H](Cc1c[nH]c2ccccc12)C(=O)N[C@@H](CC(C)C)C(=O)N[C@@H](CC(C)C)C(=O)N[C@@H](CC(=O)O)C(=O)N[C@H](C(N)=O)[C@@H](C)O)C(C)C)[C@@H](C)CC)C(=O)O)C(=O)O
- EC50 (cAMP reporter) [7]: 10.5 pM
- EC50 (cAMP reporter) [8]: 3.1 pM
- EC50 (cAMP reporter) [9]: 21 pM
